Patent publication US20170152292A1 (FONDATION THE ARK, published 2017)
Several values for one entry are separate records, joined by “and”; a condition that tells them apart may be missing. Identical values can stand only once. Bridges are numbered along the chain shown (N, C = ends). Where no end group is shown, it is not given here. [ ]: non-standard residue; d: D form. R8 = C=CCCCCCC[C@@](C)(N)C(=O)O; S5 = C=CCCC[C@](C)(N)C(=O)O

T1: monomeric N protein NK170AR185A-His (N^mono) (human respiratory syncytial virus (HRSV), UniProt P03418 1-391)
T1 construct: also called NK170AR185A-His protein; recombinant N^mono
T1 sequence: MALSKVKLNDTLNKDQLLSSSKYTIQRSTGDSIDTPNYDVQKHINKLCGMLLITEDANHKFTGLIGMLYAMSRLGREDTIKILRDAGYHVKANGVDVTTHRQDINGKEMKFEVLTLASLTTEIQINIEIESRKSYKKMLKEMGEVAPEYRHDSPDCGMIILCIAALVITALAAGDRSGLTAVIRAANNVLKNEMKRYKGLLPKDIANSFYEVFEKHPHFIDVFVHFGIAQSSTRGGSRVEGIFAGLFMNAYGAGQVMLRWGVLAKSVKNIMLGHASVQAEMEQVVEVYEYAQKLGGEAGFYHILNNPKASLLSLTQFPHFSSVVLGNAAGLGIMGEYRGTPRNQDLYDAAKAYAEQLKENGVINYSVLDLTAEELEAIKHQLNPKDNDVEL


Legend:
[1] = molecular target: monomeric N protein NK170AR185A-His (N^mono) (human respiratory syncytial virus (HRSV)) (UniProt P03418); assay: SPR, GST-P[1-40] mutant captured on anti-GST antibody, N^mono injected
[2] = molecular target: monomeric N protein NK170AR185A-His (N^mono) (human respiratory syncytial virus (HRSV)) (UniProt P03418); assay: SPR (Proteon XPR36): GST-P[1-40] mutant captured on anti-GST antibody, N^mono injected, steady-state fit
[3] = molecular target: monomeric N protein NK170AR185A-His (N^mono) (human respiratory syncytial virus (HRSV)) (UniProt P03418); assay: SPR (ProteOn XPR36), GST-P[1-40] captured on anti-GST antibody, N^mono injected, steady-state fit; lower end of the range 4-5 µM
[4] = molecular target: monomeric N protein NK170AR185A-His (N^mono) (human respiratory syncytial virus (HRSV)) (UniProt P03418); assay: SPR (ProteOn XPR36), GST-P[1-40] captured on anti-GST antibody, N^mono injected, steady-state fit; upper end of the range 4-5 µM
[5] = molecular target: RSV nucleoprotein N, wild type (N^0 form in cells) (human respiratory syncytial virus (HRSV)) (UniProt P03418); assay: cell-based or functional assay
[6] = molecular target: T1, monomeric N protein NK170AR185A-His …; assay: fluorescence polarization competition: stapled peptide titrated against FAM-P(1-40) on recombinant N^mono

Molecule | Kd [1] | Kd [2] | luciferase activity in the HRSV minigenome replication assay [5] | other results
GST-P[1-40] E2A (from UniProt P12579 1-40) | 1.9 µM | – | – | fold increase of affinity against wild type GST-P[1-40] [1]: 2 fold
GST-P[1-40] E7A (from UniProt P12579 1-40) | > 10 µM and < 20 µM | 11.1 µM | – | –
GST-P[1-40] E22A (from UniProt P08515 1-218; P12579 1-40) | – | 7.49 µM | – | –
GST-P[1-40] F4A (from UniProt P12579 1-40) | > 10 µM and < 20 µM | 13.8 µM | – | –
GST-P[1-40] F8A (from UniProt P12579 1-40) | 41 µM | – | – | –
GST-P[1-40] G10A (from UniProt P12579 1-40) | > 5 µM and < 10 µM | 5.1 µM | – | –
GST-P[1-40] G26A (from UniProt P12579 1-40) | 2.6 µM | – | – | fold increase of affinity against wild type GST-P[1-40] [1]: 2 fold
GST-P[1-40] H9A (from UniProt P12579 1-40) | – | 4 µM | – | –
GST-P[1-40] I24A (from UniProt P12579 1-40) | > 10 µM and < 20 µM | 16.4 µM | – | –
GST-P[1-40] K3A (from UniProt P12579 1-40) | – | 3.49 µM | – | –
GST-P[1-40] K25A (from UniProt P12579 1-40) | > 5 µM and < 10 µM | 7.77 µM | – | –
GST-P[1-40] L21A (from UniProt P08515 1-218; P12579 1-40) | – | 17.6 µM | – | –
GST-P[1-40] P6A (from UniProt P12579 1-40) | – | 4.89 µM | – | –
GST-P[1-40] S23A (from UniProt P12579 1-40) | – | 4.5 µM | – | –
GST-P[1-40] wild type (from UniProt P12579 1-40) | – | – | – | Kd [3]: > 4 µM; Kd [4]: < 5 µM
RSV phosphoprotein P E7A (full length, plasmid pP) (from UniProt P12579 1-241) | – | – | 50 % reduction | –
RSV phosphoprotein P F4A (full length, plasmid pP) (from UniProt P12579 1-241) | – | – | 50 % reduction | polymerase activity in the HRSV minigenome replication assay [5]: 80 % reduction
RSV phosphoprotein P F8A (full length, plasmid pP) (from UniProt P12579 1-241) | – | – | 50 % reduction | polymerase activity in the HRSV minigenome replication assay [5]: 80 % reduction
RSV phosphoprotein P F20A (full length, plasmid pP) (from UniProt P12579 1-241) | – | – | 50 % reduction | polymerase activity in the HRSV minigenome replication assay [5]: 80 % reduction
RSV phosphoprotein P G10A (full length, plasmid pP) (from UniProt P12579 1-241) | – | – | 50 % reduction | polymerase activity in the HRSV minigenome replication assay [5]: 80 % reduction
RSV phosphoprotein P I24A (full length, plasmid pP) (from UniProt P12579 1-241) | – | – | 50 % reduction | –
RSV phosphoprotein P K25A (full length, plasmid pP) (from UniProt P12579 1-241) | – | – | 50 % reduction | –
RSV phosphoprotein P L21A (full length, plasmid pP) (from UniProt P12579 1-241) | – | – | 50 % reduction | –
Ac-EDANNKAT[R8]FLESIK[S5]KFAS (staple 9-16) [HEVS108] | – | – | – | binding result [6]: no binding
